# B1: Azoarcus group I ribozyme (parent)
# chain: GUGCCUUGCGCCGGGAAACCACGCAAGGGAUGGUGUCAAAUUCGGCGAAACCUAAGCGCCCGCCCGGGCGUAUGGCAACGCCGAGCCAAGCUUCGGCGCCUGCGCCGAUGAAGGUGUAGAGACUAGACGGCACCCACCUAAGGCAAACGCUAUGGUGAAGGCAUAGUCCAGGGAGUGGCGAAAGUCACACAAACCGG
# Variants of: B1
# Assay: reverse-splicing fitness (ratio to wild type); higher = more active; in vitro selection; Mg2+ level not given
# Summary of the method: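 An in vitro group I ribozyme library with randomized positions was T7-transcribed and gel-purified. In triplicate, 10 pmol RNA in EPPS pH 7.5 was reacted with 50 pmoles of a 30-nt RNA substrate for 1 h at 37 °C across several added MgCl2 levels (1–48 mM), then stopped with EDTA. Products were reverse transcribed from a substrate-complementary primer, PCR-amplified and sequenced (HiSeq 4000). Fitness is a variant's read proportion after selection over that before, normalised to wild type.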
row,Variant,reverse-splicing fitness
1,C82G A111G A120U A145U C150U C169G U176C,0.00343
2,C82G A111G A145C C150G C169G U176G,0.0057
3,C82G A111G A145C C150G C169G U176A,0.0101
4,C82G A111G A145C C150G C169G U176C,0.00856
5,C82G A111G A120U A145C C150G C169A,0.00256
6,C82G A111G A120U A145C C150G C169U,0.00296
7,C82G A111G A120U A145C C150G C169G,0.0027
8,C82G A111G A120U A145G C169G U176C,0.00531
9,C82G A111G A120U A145G C169G U176G,0.00184
10,C82G A111G A120U A145G C169G U176A,0.00491
11,C82G A111G A120U A145U C169A U176A,0.00206
12,C82G A111G A120U A145U C169A U176C,0.00207
13,C82G A111G A120U A145U C169A U176G,0.0018
14,C82G A111G A145C C169G U176C,0.0131
15,C82G A111G A145C C169G U176G,0.00501
16,C82G A111G A145C C169G U176A,0.022
17,C82G A111G A120U C150U,0.0348
18,C82G A111G A120U C150G,0.00849
19,C82G A111G A120U C150A,0.00949
20,C82G A111G A120U A145G U176A,0.0143
21,C82G A111G A120U A145G U176G,0.00435

row,Variant,reverse-splicing fitness
1,C82G A111G A120U A145G U176C,0.0283
2,C82G A111G A120U A145U C150G C169A,0.00331
3,C82G A111G A120U A145U C150G C169G,0.003
4,C82G A111G A120U A145U C150G C169U,0.00254
5,C82G A111G A120U C150U U176A,0.0115
6,C82G A111G A120U C150U U176G,0.00497
7,C82G A111G A120U C150U U176C,0.0164
8,C82G A111G A145C C150G C169G,0.00758
9,C82G A111G A145C C150G C169U,0.00923
10,C82G A111G A145C C150G C169A,0.00828
11,C82G A111G A120U C150G C169U,0.0064
12,C82G A111G A120U C150G C169A,0.00761
13,C82G A111G A120U C150G C169G,0.00678
14,C82G A111G A120U A145C C150A C169G U176G,0.0019
15,C82G A111G A120U A145C C150A C169G U176C,0.00215
16,C82G A111G A120U A145C C150A C169G U176A,0.00277
17,C82G A111G A120U A145U C150G C169G U176C,0.00256
18,C82G A111G A120U A145U C150G C169G U176G,0.00197
19,C82G A111G A120U A145U C150G C169G U176A,0.0025
20,C82G A111G A120U C169G U176A,0.00289
21,C82G A111G A120U C169G U176C,0.00434

row,Variant,reverse-splicing fitness
1,C82G A111G A120U C169G U176G,0.00169
2,C82G A111G A145G C150A C169A,0.011
3,C82G A111G A120U C150G C169A U176G,0.00267
4,C82G A111G A120U C150G C169A U176A,0.00788
5,C82G A111G A120U C150G C169A U176C,0.00831
6,C82G A111G A145C C150G C169A U176A,0.00983
7,C82G A111G A145C C150G C169A U176C,0.0105
8,C82G A111G A145C C150G C169A U176G,0.00615
9,C82G A111G A145G,0.431
10,C82G A111G A145C,0.392
11,C82G A111G A120U A145C C169U U176G,0.00131
12,C82G A111G A120U A145C C169U U176A,0.00244
13,C82G A111G A120U A145C C169U U176C,0.00228
14,C82G A111G A145C C150G C169U U176A,0.00922
15,C82G A111G A145C C150G C169U U176C,0.013
16,C82G A111G A145C C150G C169U U176G,0.00582
17,C82G A111G A120U A145U C150A C169A U176G,0.00211
18,C82G A111G A120U A145U C150A C169A U176C,0.00223
19,C82G A111G A120U A145U C150A C169A U176A,0.00256
20,C82G A111G A120U C150A U176C,0.00806
21,C82G A111G A120U C150A U176A,0.0074

row,Variant,reverse-splicing fitness
1,C82G A111G A120U C150A U176G,0.00368
2,C82G A111G A145C C150U U176A,0.0557
3,C82G A111G A145C C150U U176C,0.0592
4,C82G A111G A145C C150U U176G,0.0267
5,C82G A111G A120U A145U C150G U176A,0.00457
6,C82G A111G A120U A145U C150G U176C,0.00556
7,C82G A111G A120U A145U C150G U176G,0.00264
8,C82G A111G A145C C150A C169G,0.00798
9,C82G A111G A145C C150A C169A,0.00763
10,C82G A111G A145C C150A C169U,0.0097
11,C82G A111G A120U A145U,0.0713
12,C82G A111G A120U A145G,0.0663
13,C82G A111G A120U A145C,0.0668
14,C82G A111G A120U A145U C150A C169U U176A,0.00305
15,C82G A111G A120U A145U C150A C169U U176G,0.00215
16,C82G A111G A120U A145U C150A C169U U176C,0.0029
17,C82G A111G A120U A145C C150A C169A U176G,0.00204
18,C82G A111G A120U A145C C150A C169A U176C,0.00213
19,C82G A111G A120U A145C C150A C169A U176A,0.00209
20,C82G A111G A120U C150A C169G U176G,0.00187
21,C82G A111G A120U C150A C169G U176A,0.00749
